# B1: anti-ASGR1 primary antibody (Amgen clone 7E11) (antibody, human IgG1, kappa, N297G, V domains shown)
# VH: QVQLVESGGGVVQPGRSLRLSCAASGFTFSSFGMHWVRQAPGKGLEWVAIIWHDGSNKYYADSVKGRFTISRDNSKNTLYLQMSSLRAEDTAVYYCARDLSMGGMDVWGQGTTVTVSS
# VL: DIQMTQSPSSLSASVGDRVTIACRASQNIISYLNWYQQKPGKAPKFLIYTASSLQSGVPSRFSGSGSGTDFTLTISSLQPEDFAIYYCQQTYSTPLTFGGGTKVEIKR
# notes: It was used as a staining reagent and detected with an Alexa488-conjugated anti-human IgG secondary antibody
# Molecular target: T1, human asialoglycoprotein receptor 1 (ASGR1) (human, UniProt P07306 1-291)
# T1 construct: whole, on cells; The cells were fixed in formaldehyde before staining; also called hASGR1; HL-1
# T1 sequence (looked up): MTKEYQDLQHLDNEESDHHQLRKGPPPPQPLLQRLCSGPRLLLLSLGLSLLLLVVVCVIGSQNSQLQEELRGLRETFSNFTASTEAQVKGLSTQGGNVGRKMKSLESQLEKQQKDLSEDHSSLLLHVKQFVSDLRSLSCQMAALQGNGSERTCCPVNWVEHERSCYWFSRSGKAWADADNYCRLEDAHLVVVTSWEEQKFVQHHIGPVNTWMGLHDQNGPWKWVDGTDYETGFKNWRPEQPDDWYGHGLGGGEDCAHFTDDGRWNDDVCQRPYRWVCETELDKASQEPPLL
# Experiment: immunofluorescence on formaldehyde-fixed Hep3B or HepG2 cells, Alexa488 anti-human IgG secondary, high-content imaging
# Experimental: The siRNA molecules in Tier 1 and Tier 2 screening sets were synthesized without chemical modifications. Each siRNA molecule was comprised of a 21 nucleotide sense strand and 21 nucleotide antisense strand that hybridized to form a duplex region of 19 base pairs with a 2 nucleotide overhang at the 3' end of each strand. The efficacy of each of the siRNA molecules in reducing ASGR1 expression was assessed using a 384-well format in vitro immunoassay, which quantifies levels of ASGR1 protein on the cell surface of Hep3B or HepG2 cells.
# Transfection complexes of the siRNA molecules and RNAiMax transfection reagent (Life Technologies) in EMEM media (ATCC 30-2003) were prepared in 384-well plates in accordance with manufacturer's recommendations. Human hepatocellular carcinoma Hep3B (ATCC HB-8064) or HepG2 (ATCC HB-8065) cells in EMEM media supplemented with 10% fetal bovine serum and 1% antibiotic/antimycotic were added to each well. Cells were incubated for 4 days at 37° C. and 5% CO_2. […] Data was analyzed using Columbus image analysis software and GeneData Screener software to quantify several measures of ASGR1 protein levels, cell count, and cell morphology on a per cell and per well basis.
binder,measurement,value
B1,binding result,binds
